Measured values as given in article PMC8317483.

Key:
Nsp9COV19 (15N-labeled) [1] = target: T1, Nsp9COV19 (15N-labeled) (SARS-CoV-2, UniProt P0DTD1 4141-4253); test: 15N-1H HSQC NMR titration
Nsp9COV19 (15N-labeled) [2] = target: T1, Nsp9COV19 (15N-labeled); test: 15N-1H HSQC NMR titration; remark: listed apart in the source

Row | Binder | Kd (Nsp9COV19 (15N-labeled) [1]) [µM] | binding result (Nsp9COV19 (15N-labeled) [2])
1 | UUGGAGUU (ssRNA) [RNA.2 (8 nt ssRNA)] | ~550 | –
2 | AUUCG (ssRNA) [RNA.1 (5 nt ssRNA)] | – | binds
